B1: RAS guanyl-releasing protein 1, residues 539 to 593; numbered along this chain, O95267 (parent)
chain: GFPHNFQETTYLKPTFCDNCAGFLWGVIKQGYRCKDCGMNCHKQCKDLVVFECKK

Variants of: B1
Assay: abundance fitness (aPCA) (normalised: wild type 0, dead -1); higher = more abundant; growth selection in yeast, the domain comes from the species named
Details: Homo sapiens

Abundance fitness: each site, then its substitutions
N19: Q -0.29 | R -0.036 | S 0.05 | T -0.043 | V -0.02 | W 0.082 | Y -0.142
C20: A -1.01 | D -0.541 | E -0.931 | G -1.12 | H -0.695 | L -0.974 | M -1.05 | N -1.29 | Q -1.01 | R -0.74 | S -1.24 | T -1.05 | V -1.13 | W -0.827
A21: C -0.009 | E -0.041 | F -0.074 | G -0.084 | H -0.082 | I 0.04 | K 0.019 | M -0.162 | P -0.116 | Q -0.311 | R 0.053 | T 0.043 | V -0.071 | W -0.222 | Y 0.13
G22: C 0.147 | D -0.189 | E -0.164 | F -0.386 | H -0.078 | I -0.154 | K -0.278 | M 0.105 | N -0.298 | P -0.595 | Q -0.146 | R -0.082 | S -0.066 | V -0.482 | Y -0.317
F23: A -0.433 | C -0.166 | D -0.423 | E -0.333 | G -0.328 | H -0.706 | I -0.032 | K -0.297 | L 0.105 | M -0.022 | N -0.628 | P -0.409 | Q -0.204 | R -0.242 | S -0.431 | T -0.503 | V -0.132 | W 0.014 | Y -0.074
L24: A -0.396 | C -0.118 | D -0.709 | E -0.369 | F -0.006 | G -0.48 | H -0.465 | I -0.049 | K -0.333 | M 0.248 | N -0.303 | P -0.612 | Q -0.424 | R -0.375 | S -0.325 | T -0.279 | V -0.241 | W -0.617 | Y -0.623
W25: A -0.148 | C -0.558 | D -0.121 | E -0.047 | F -0.143 | G -0.425 | H -0.226 | I -0.038 | K -0.206 | L -0.286 | M -0.247 | N -0.377 | P -0.07 | Q -0.128 | R -0.217 | S -0.246 | T 0.157 | V -0.102 | Y -0.191
G26: A -0.225 | C -0.563 | D -0.449 | E -0.517 | F -0.703 | H -0.375 | I -0.946 | K -0.442 | L -0.452 | M -0.345 | N -0.562 | Q -0.462 | R -0.616 | T -0.529 | V -0.736 | W -0.269
V27: A -0.102 | C -0.192 | D -0.657 | E -0.17 | F 0.027 | G -0.19 | H -0.516 | I -0.119 | K -0.434 | L -0.063 | P -0.297 | R -0.647 | S -0.423 | W -0.22 | Y -0.018
I28: C -0.223 | D -0.429 | E -0.341 | H -0.209 | K 0.065 | L -0.27 | N -0.243 | Q -0.462 | R -0.084 | S -0.136 | T -0.116 | V -0.056 | W -0.111 | Y -0.199
K29: A -0.124 | C -0.171 | D -0.618 | E -0.386 | F -0.224 | H -0.108 | I -0.252 | M -0.052 | N 0.013 | P -0.556 | R -0.103 | S -0.086 | T -0.289 | V -0.289
